{"source": "patent US12385902B2", "about": "“Methods for generating and screening compartmentalised peptide libraries” (UNIVERSITY OF SOUTHAMPTON, priority 2017, dated 2025)", "key": {"AB42-GFP fusion": {"target": "T1, AB42-GFP fusion (Homo sapiens, UniProt P05067)", "T1 construct": "In vitro expression in microfluidic droplets of AB42-GFP fusion with cyclo-TAFDR; made in house; host or cells: cell-free in vitro transcription/translation (IVTT)", "T1 sequence (P05067 672-713 limits assumed)": "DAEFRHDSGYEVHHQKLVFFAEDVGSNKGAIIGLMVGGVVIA", "assay": "In vitro expression in microfluidic droplets of AB42-GFP fusion with cyclic peptide; aggregation assay read by FACS green fluorescence", "format": "biochemical", "settings": "double emulsion droplets, IVTT 2 h at 37° C., relative to buffer alone, IVTT alone and cyclo-CA5", "procedure": "FIG. 17. In vitro expression in microfluidic droplets of AB42-GFP fusion with cyclo-TAFDR (SEQ ID NO: 7) (Matis et al.). Vector CSpDuetNpuHisAB42-GFP was utilised for the cloning of TAFDR (SEQ ID NO: 7) into MCS1. Thereafter, plasmid DNA was encapsulated into agarose droplets alongside isothermal DNA amplification reaction components and incubated overnight. Agarose beads were prepped as previously stated and re-encapsulated together with IVTT. A final emulsification step was performed to yield FACS compatible double emulsions. A negative control vector in the presence of CA5 was likewise constructed to verify cyclo-TAFDR (SEQ ID NO: 7) AB42-GFP aggregation inhibition.\nWhen GFP is produced as an aggregating fusion, its fluorescence is lost; however, when the aggregation is disrupted by TAFDR (SEQ ID NO: 7), the GFP can fluoresce. See Mathis et al., Nature Biomedical Engineering volume 1, pages 838-852 (2017).\nWe have used the Δβ42 aggregation assay to assess the performance of the system of the invention. This assay has previously been combined with a SICLOPPS screen (Mathis et al.), so cyclo-TAFDR (SEQ ID NO: 7) is a validated positive cyclic peptide control.\nVector CSpDuetNpuHisAB42-GFP was utilised for the cloning of TAFDR (SEQ ID NO: 7) into MCS1. […]"}, "[1]": {"tested_on": "Alzheimer's protein Δβ42 fused to GFP", "sequence (P05067 672-713 limits assumed, stated change not applied)": "as the sequence (P05067 672-713 limits assumed) above", "settings": "Mathis et al., Nature Biomedical Engineering 2017; cited from earlier work"}}, "note": "“Also recorded” adds a separate entry of the source."}
{"substance": "cyclo-TAFDR (cyclised)", "values": [{"measurement": "green fluorescence (GFP) upon cyclic peptide expression, associated with disruption of Aβ aggregation", "setting": "AB42-GFP fusion", "value": "positive shift in green fluorescence; also recorded: significant increase in fluorescence"}, {"measurement": "inhibition of aggregation of Aβ42 fused to GFP", "setting": "[1]", "value": "inhibit aggregation"}]}
